Data on nine molecules can be found in US20240182536A1 (MURAL ONCOLOGY, published 2024).

Assay [1] deals with T1, interleukin 18 binding protein (IL-18BP) (UniProt O95998 31-194).
T1 sequence (looked up): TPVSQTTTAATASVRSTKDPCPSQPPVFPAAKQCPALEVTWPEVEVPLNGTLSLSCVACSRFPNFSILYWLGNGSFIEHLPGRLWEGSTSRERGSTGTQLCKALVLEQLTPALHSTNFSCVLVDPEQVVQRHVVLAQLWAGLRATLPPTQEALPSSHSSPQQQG
The experiment in a line: cell-based or functional assay.

Assay [2] addresses T2, IL-18 receptors on HEK-Blue IL-18 reporter cells (UniProt Q13478 19-541; O95256 20-599, limits assumed).
T2 sequence (looked up) 1: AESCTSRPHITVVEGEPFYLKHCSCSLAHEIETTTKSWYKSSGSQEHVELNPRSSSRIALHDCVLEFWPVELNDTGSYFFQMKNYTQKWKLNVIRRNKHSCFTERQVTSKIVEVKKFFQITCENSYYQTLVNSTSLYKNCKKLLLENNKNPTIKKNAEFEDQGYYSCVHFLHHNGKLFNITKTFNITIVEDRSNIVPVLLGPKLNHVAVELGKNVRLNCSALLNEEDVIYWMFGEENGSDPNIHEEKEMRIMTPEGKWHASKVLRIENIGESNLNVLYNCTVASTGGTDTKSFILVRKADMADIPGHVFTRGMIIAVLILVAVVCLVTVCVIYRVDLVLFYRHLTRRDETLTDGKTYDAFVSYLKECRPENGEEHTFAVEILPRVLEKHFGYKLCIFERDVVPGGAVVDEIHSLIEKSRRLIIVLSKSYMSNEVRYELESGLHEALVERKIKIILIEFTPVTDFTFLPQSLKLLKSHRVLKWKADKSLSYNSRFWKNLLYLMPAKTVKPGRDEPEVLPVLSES
T2 sequence (looked up) 2: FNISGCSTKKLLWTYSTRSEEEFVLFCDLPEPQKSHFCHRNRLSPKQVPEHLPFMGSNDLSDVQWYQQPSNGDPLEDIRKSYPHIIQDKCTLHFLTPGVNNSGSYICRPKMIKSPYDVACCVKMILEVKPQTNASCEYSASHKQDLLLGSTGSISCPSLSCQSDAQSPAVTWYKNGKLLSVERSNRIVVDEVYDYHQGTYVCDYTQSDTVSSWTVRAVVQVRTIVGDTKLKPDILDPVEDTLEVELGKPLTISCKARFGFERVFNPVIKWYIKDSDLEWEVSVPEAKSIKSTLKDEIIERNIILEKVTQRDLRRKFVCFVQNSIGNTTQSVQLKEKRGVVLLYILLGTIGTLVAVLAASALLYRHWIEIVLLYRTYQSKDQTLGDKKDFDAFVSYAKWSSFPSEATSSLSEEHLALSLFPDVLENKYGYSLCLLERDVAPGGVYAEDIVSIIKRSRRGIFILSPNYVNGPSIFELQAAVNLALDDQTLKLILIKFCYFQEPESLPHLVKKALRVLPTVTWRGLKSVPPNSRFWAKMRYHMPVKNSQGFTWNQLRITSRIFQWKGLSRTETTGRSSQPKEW
Put plainly: cell-based or functional assay.

B1: IL-18 variant L15I, K53H, S55M (ligand)
chain: YFGKLESKLSVIRNINDQVLFIDQGNRPLFEDMTDSDMRDNAPRTIFIISMYHDMQPRGMAVTISVKSEKISTLSSENKIISFKEMNPPDNIKDTKSDIIFFQRSVPGHDNKMQFESSSYEGYFLASEKERDLFKLILKKEDELGDRSIMFTVQNED
For the molecule B1, in assay [1], the “HEK-Blue activity, +100 nM BP, DF-10000” value was 0.12; the “HEK-Blue activity, +100 nM BP, DF-100,000” value stood at 0.1; the “HEK-Blue activity, +100 nM BP, DF-1,000,000” value was found to be 0.08; the “Ratio (-BP/+BP), DF-10000” value is 0.9. Further, in assay [1], the “Ratio (-BP/+BP), DF-100,000” value was 0.99 and the “Ratio (-BP/+BP), DF-1,000,000” value is 1.02. Further, in assay [2], the “HEK-Blue activity, No BP, DF-10000” value was 0.11; the “HEK-Blue activity, No BP, DF-100,000” value was determined as 0.1; the “HEK-Blue activity, No BP, DF-1,000,000” value was found to be 0.09.

B2: IL-18 variant T34E, S36P, D40A, N41G, K53T, S55R (ligand)
chain: YFGKLESKLSVIRNLNDQVLFIDQGNRPLFEDMEDPDMRAGAPRTIFIISMYTDRQPRGMAVTISVKSEKISTLSSENKIISFKEMNPPDNIKDTKSDIIFFQRSVPGHDNKMQFESSSYEGYFLASEKERDLFKLILKKEDELGDRSIMFTVQNED
In the case of B2, in assay [1], the “HEK-Blue activity, +100 nM BP, DF-10000” value turned out to be 0.1; the “HEK-Blue activity, +100 nM BP, DF-100,000” value stood at 0.09; the “HEK-Blue activity, +100 nM BP, DF-1,000,000” value amounted to 0.09; the “Ratio (-BP/+BP), DF-10000” value stood at 0.98. In addition, in assay [1], the “Ratio (-BP/+BP), DF-100,000” value was found to be 1.01 and the “Ratio (-BP/+BP), DF-1,000,000” value turned out to be 0.96. Further, in assay [2], the “HEK-Blue activity, No BP, DF-10000” value is 0.09; the “HEK-Blue activity, No BP, DF-100,000” value was determined as 0.1; the “HEK-Blue activity, No BP, DF-1,000,000” value stood at 0.09.

B3: IL-18 variant S36F, N41E, K53W (ligand)
chain: YFGKLESKLSVIRNLNDQVLFIDQGNRPLFEDMTDFDMRDEAPRTIFIISMYWDSQPRGMAVTISVKSEKISTLSSENKIISFKEMNPPDNIKDTKSDIIFFQRSVPGHDNKMQFESSSYEGYFLASEKERDLFKLILKKEDELGDRSIMFTVQNED
For B3, in assay [1], the “HEK-Blue activity, +100 nM BP, DF-10000” value is 0.09; the “HEK-Blue activity, +100 nM BP, DF-100,000” value was found to be 0.1; the “HEK-Blue activity, +100 nM BP, DF-1,000,000” value worked out at 0.09; the “Ratio (-BP/+BP), DF-10000” value was determined as 1. Besides, in assay [1], the “Ratio (-BP/+BP), DF-100,000” value is 1.01 and the “Ratio (-BP/+BP), DF-1,000,000” value was determined as 0.91. Also, in assay [2], the “HEK-Blue activity, No BP, DF-10000” value turned out to be 0.09; the “HEK-Blue activity, No BP, DF-100,000” value is 0.1; the “HEK-Blue activity, No BP, DF-1,000,000” value was determined as 0.09.

B4: IL-18 variant S36E, D37E, D40V, N41S, K53Y, S55V, H109Y (ligand)
chain: YFGKLESKLSVIRNLNDQVLFIDQGNRPLFEDMTDEEMRVSAPRTIFIISMYYDVQPRGMAVTISVKSEKISTLSSENKIISFKEMNPPDNIKDTKSDIIFFQRSVPGYDNKMQFESSSYEGYFLASEKERDLFKLILKKEDELGDRSIMFTVQNED
As for B4, in assay [1], the “HEK-Blue activity, +100 nM BP, DF-10000” value stood at 0.09; the “HEK-Blue activity, +100 nM BP, DF-100,000” value came to 0.1; the “HEK-Blue activity, +100 nM BP, DF-1,000,000” value was 0.1; the “Ratio (-BP/+BP), DF-10000” value came out at 1.03. For the same molecule, in assay [1], the “Ratio (-BP/+BP), DF-100,000” value was found to be 0.92 and the “Ratio (-BP/+BP), DF-1,000,000” value worked out at 0.89. In addition, in assay [2], the “HEK-Blue activity, No BP, DF-10000” value is 0.09; the “HEK-Blue activity, No BP, DF-100,000” value is 0.09; the “HEK-Blue activity, No BP, DF-1,000,000” value is 0.09.

B5: IL-18 variant S36Q, D40T, K53P, S55L (ligand)
chain: YFGKLESKLSVIRNLNDQVLFIDQGNRPLFEDMTDQDMRTNAPRTIFIISMYPDLQPRGMAVTISVKSEKISTLSSENKIISFKEMNPPDNIKDTKSDIIFFQRSVPGHDNKMQFESSSYEGYFLASEKERDLFKLILKKEDELGDRSIMFTVQNED
B5: in assay [1], the “HEK-Blue activity, +100 nM BP, DF-10000” value is 0.09; the “HEK-Blue activity, +100 nM BP, DF-100,000” value stood at 0.09; the “HEK-Blue activity, +100 nM BP, DF-1,000,000” value is 0.09; the “Ratio (-BP/+BP), DF-10000” value worked out at 1.09. Moreover, in assay [1], the “Ratio (-BP/+BP), DF-100,000” value came to 1.44 and the “Ratio (-BP/+BP), DF-1,000,000” value stood at 0.9. Besides, in assay [2], the “HEK-Blue activity, No BP, DF-10000” value came to 0.09; the “HEK-Blue activity, No BP, DF-100,000” value was 0.13; the “HEK-Blue activity, No BP, DF-1,000,000” value came out at 0.08.

B6: IL-18 variant K8R, L9G, S10C, K53G, S55A, R104G (ligand)
chain: YFGKLESRGCVIRNLNDQVLFIDQGNRPLFEDMTDSDMRDNAPRTIFIISMYGDAQPRGMAVTISVKSEKISTLSSENKIISFKEMNPPDNIKDTKSDIIFFQGSVPGHDNKMQFESSSYEGYFLASEKERDLFKLILKKEDELGDRSIMFTVQNED
Take B6: in assay [1], the “HEK-Blue activity, +100 nM BP, DF-10000” value is 0.12; the “HEK-Blue activity, +100 nM BP, DF-100,000” value was found to be 0.14; the “HEK-Blue activity, +100 nM BP, DF-1,000,000” value amounted to 0.1; the “Ratio (-BP/+BP), DF-10000” value amounted to 0.88. Further, in assay [1], the “Ratio (-BP/+BP), DF-100,000” value came to 0.92 and the “Ratio (-BP/+BP), DF-1,000,000” value was 1.03. Besides, in assay [2], the “HEK-Blue activity, No BP, DF-10000” value is 0.1; the “HEK-Blue activity, No BP, DF-100,000” value amounted to 0.13; the “HEK-Blue activity, No BP, DF-1,000,000” value worked out at 0.1.

B7: IL-18 variant K53G, S55I, R104K, P107Y (ligand)
chain: YFGKLESKLSVIRNLNDQVLFIDQGNRPLFEDMTDSDMRDNAPRTIFIISMYGDIQPRGMAVTISVKSEKISTLSSENKIISFKEMNPPDNIKDTKSDIIFFQKSVYGHDNKMQFESSSYEGYFLASEKERDLFKLILKKEDELGDRSIMFTVQNED
B7: in assay [1], the “HEK-Blue activity, +100 nM BP, DF-10000” value was determined as 0.11; the “HEK-Blue activity, +100 nM BP, DF-100,000” value was 0.09; the “HEK-Blue activity, +100 nM BP, DF-1,000,000” value came to 0.09; the “Ratio (-BP/+BP), DF-10000” value was found to be 0.99. Also, in assay [1], the “Ratio (-BP/+BP), DF-100,000” value came to 1 and the “Ratio (-BP/+BP), DF-1,000,000” value is 0.95. Besides, in assay [2], the “HEK-Blue activity, No BP, DF-10000” value is 0.1; the “HEK-Blue activity, No BP, DF-100,000” value turned out to be 0.09; the “HEK-Blue activity, No BP, DF-1,000,000” value is 0.09.

B8: IL-18 variant T34S, S36Y, D37N, D40E, N41Q, K53Y, S55I (ligand)
chain: YFGKLESKLSVIRNLNDQVLFIDQGNRPLFEDMSDYNMREQAPRTIFIISMYYDIQPRGMAVTISVKSEKISTLSSENKIISFKEMNPPDNIKDTKSDIIFFQRSVPGHDNKMQFESSSYEGYFLASEKERDLFKLILKKEDELGDRSIMFTVQNED
Consider B8, for which, in assay [1], the “HEK-Blue activity, +100 nM BP, DF-10000” value came to 0.09; the “HEK-Blue activity, +100 nM BP, DF-100,000” value was found to be 0.09; the “HEK-Blue activity, +100 nM BP, DF-1,000,000” value was determined as 0.12; the “Ratio (-BP/+BP), DF-10000” value worked out at 0.98. For the same molecule, in assay [1], the “Ratio (-BP/+BP), DF-100,000” value stood at 0.96 and the “Ratio (-BP/+BP), DF-1,000,000” value was 0.75. Also, in assay [2], the “HEK-Blue activity, No BP, DF-10000” value was 0.09; the “HEK-Blue activity, No BP, DF-100,000” value stood at 0.09; the “HEK-Blue activity, No BP, DF-1,000,000” value was found to be 0.09.

B9: IL-18 variant K53H, S55Y (ligand)
chain: YFGKLESKLSVIRNLNDQVLFIDQGNRPLFEDMTDSDMRDNAPRTIFIISMYHDYQPRGMAVTISVKSEKISTLSSENKIISFKEMNPPDNIKDTKSDIIFFQRSVPGHDNKMQFESSSYEGYFLASEKERDLFKLILKKEDELGDRSIMFTVQNED
As to B9, in assay [1], the “HEK-Blue activity, +100 nM BP, DF-10000” value was 0.1; the “HEK-Blue activity, +100 nM BP, DF-100,000” value stood at 0.1; the “HEK-Blue activity, +100 nM BP, DF-1,000,000” value turned out to be 0.11; the “Ratio (-BP/+BP), DF-10000” value is 0.91. Also, in assay [1], the “Ratio (-BP/+BP), DF-100,000” value was 0.99 and the “Ratio (-BP/+BP), DF-1,000,000” value is 0.8. Besides, in assay [2], the “HEK-Blue activity, No BP, DF-10000” value worked out at 0.09; the “HEK-Blue activity, No BP, DF-100,000” value was 0.09; the “HEK-Blue activity, No BP, DF-1,000,000” value came to 0.09.
